From article doi:10.1101/2022.09.14.507916 come the findings set out here.

In general, stoichiometry N refers to a count of units in the complex or per binding partner.

In this assay the target is octameric HlgAB pore complex of γ-hemolysin (four HlgA and four HlgB, alternating) (Staphylococcus aureus (strain Newman)). The assay can be described thus: cryo-EM structure.

As for “octameric HlgAB pore complex of γ-hemolysin (four HlgA and four HlgB, alternating)”, the stoichiometry N came to 6.
